Measurements reported in article PMC4148589 (Journal of cell science, 2013).

Tests used:
Assay in all cases: FRAP
[1] = target: CaV1.2 α1C subunit, untagged (pβA-α1C) (UniProt P22002-5 1-2142)
[2] = target: CaV1.1 α1S with deletion of amino acid 344 (pc-α1Sdel1(Δ344)) (UniProt P07293 1-1873, Δ344)
[3] = target: CaV1.1 α1S with deletion of amino acids 344–345 (pc-α1Sdel2(Δ344–345)) (UniProt P07293 1-1873, Δ344–345)
[4] = target: CaV1.1 α1S with deletion of amino acids 344–346 (pc-α1Sdel3(Δ344–346)) (UniProt P07293 1-1873, Δ344–346)
[5] = target: CaV1.1 α1S subunit, untagged (pc-α1S) (UniProt P07293 1-1873)

Binder	R75 (fractional fluorescence recovery 75 s after bleaching) [1] [%]	R75 (fractional fluorescence recovery 75 s after bleaching) [2] [%]	R75 (fractional fluorescence recovery 75 s after bleaching) [3] [%]	R75 (fractional fluorescence recovery 75 s after bleaching) [4] [%]	R75 (fractional fluorescence recovery 75 s after bleaching) [5] [%]
skeletal muscle β1a subunit, GFP-tagged (pcDNA3-β1a-GFP) (natural protein) not shown	23.6	20.9	19.9	22.8	
β1a subunit with the substitution M293A, GFP-tagged (pcDNA3-β1aM293A-GFP) (natural protein) not shown					45.2
